A short description of data set [1]: Variable temperature circular dichroism (CD) thermal unfolding. The format is physicochemical. Particulars: for Tm1 ± StDev: normalized CD at 220 nm vs. temperature, 3 replicates averaged, ramp 30-90° C. at 1° C. per minute; for thermal unfolding behaviour / formation of unfolding intermediate: result in words, for polymer conjugates the selected SEC fractions; for Tm2 ± StDev: second unfolding transition, cells printed as ND with footnote b. As to the method: CD spectroscopic data were recorded with an Applied Photophysics™ Chirascan spectrophotometer equipped with a Quantum Northwestern Peltier temperature control device and operating with Chirascan v4.7.0 and Pro-Data™ Viewer software. Samples were prepared in PBS at final concentrations of 10 μM. All samples were contained in 2 mm tapered quartz cuvettes, and a temperature probe was inserted through the cuvette cap to monitor the sample temperature in real time. The following parameters were used for constant temperature experiments: CD signal measured in millidegrees, bandwidth of 1.0 nm, wavelength scan from 200-280 nm, step size of 2.0 nm. Spectra were background subtracted against the sample buffer. For thermal unfolding experiments, a linear thermal ramp was applied from 30° C. to 90° C. at 1° C. per minute. All spectra were measured in triplicate, and data were normalized to account for slight differences in protein concentration.
To calculate melting temperatures of unconjugated Gal3C, Gal3C[T243C], and Gal3C[T243C] variants containing lysine replacements, the normalized data were fit to a Boltzmann sigmoidal function in Origin v8.5. For the data fitting, no parameters were fixed, and the ‘x’ parameter defined as the center of the data was interpreted as the melting temperature (Tm). Variable temperature CD data of PEGylated Gal3C[T243C] and Gal3C[T243C] variants were fit with a sum of two Boltzmann sigmoidal functions, as shown below:
where ‘A1’, ‘A2’, and ‘A3’ represent three plateaus of the CD signal, ‘dx1’ and ‘dx2’ are the change in x between the plateaus for each melting transition, and ‘x1’ and ‘x2’ are the two Tm values extracted by the fit for the first and second unfolding transitions, respectively. Because the third plateau, A3, occurred at temperatures higher than the experimentally accessible range, this value was estimated. A single wavelength for plotting on the y-axis was selected by calculating the wavelength of greatest CD signal change for each PEGylated construct.
To record a CD spectrum of Gal3C[T243C] with free PEG, a stock solution of methoxy-PEG (mPEG) in 1×PBS was added immediately before the experiment to a solution containing protein (20 μM, 1 ×PBS) to a final concentration of 22 μM mPEG. All thermal melt parameters were the same as listed in the above described experiments.
CD spectroscopic data were recorded with an Applied Photophysics Chirascan spectrophotometer equipped with a Quantum Northwestern Peltier temperature control device and operating with Chirascan v4.7.0 and Pro-Data Viewer software, following procedures used in our previous study.^4 Spectra were background subtracted against the sample buffer. For thermal unfolding experiments, a linear thermal ramp was applied from 30° C. to 90° C. at 1° C. per minute with samples concentrated to 10 μM in PBS. All spectra were measured in triplicate, and data were normalized to account for slight differences in protein concentration.
Full wavelength (200-280 nm) CD spectra for each construct (FIG. 43) were used to calculate a wavelength of greatest change (222 or 224 nm) to create single wavelength CD vs. temperature plots (FIG. 30H-J and FIG. 31F-G). The single wavelength CD signal vs. temperature plot of Gal3C[T243C] used data acquired at 220 nm, which was the wavelength of greatest change for the unmodified protein. To calculate melting temperatures, the normalized data were fit to a Boltzmann sigmoidal function in Origin v8.5. For the data fitting, no parameters were fixed, and the ‘x’ parameter defined as the center of the data was interpreted as the melting temperature (Tm).

A further data set relates to breast cancer. The following applies: breast cancer animal models; cited from earlier work.
Data set [2] in a line: Equilibrium binding of LacNac, intrinsic tryptophan fluorescence. The following applies: ligand LacNac; average ± standard deviation of 3 replicated experiments; PBS; read-out: Kd (equilibrium binding constant). As to the method:
(§1) Equilibrium binding data were recorded using a protocol adapted from a previous procedure from Restuccia, et al (38). Intrinsic tryptophan fluorescence was monitored using a Cary Eclipse™ Fluorescence Spectrophotometer (Agilent) operating with Cary Eclipse™ WinFLR software version 1.2 in ‘Scan Mode’. The instrument method parameters were as follows: excitation wavelength was 280 nm, the acquisition range was from 290 nm to 440 nm and the photomultiplier tube sensitivity was set to ‘medium’. Samples were prepared at final concentrations of 1 μM for Gal3C[T243C] or 5 μM Gal3C[T243C]-PEG in 800 ∥L, in PBS for each titration. Samples were pipetted into 0.7×0.7 cm quartz cuvettes with a micro stir bar. Each new experiment was first zeroed against PBS to remove the small background signal from the buffer. […]
The binding affinity and specificity of Gal3C[T243C]-PEG was compared with Gal3C[T243C] and Gal3C (see FIG. 1C, FIG. 9 and FIG. 10) via an inherent tryptophan fluorescence assay optimized to ensure equilibrium binding conditions. Binding of lactose or LacNac quenches the fluorescence of W181, located adjacent to the bound sugar in the crystal structure of Gal3C, thus permitting direct measurement of ligand Kd values. […]

Data set [3] is described as follows: Equilibrium binding of lactose, intrinsic tryptophan fluorescence. Particulars: ligand lactose; average ± standard deviation of 3 replicated experiments; PBS; read-out: Kd (equilibrium binding constant). As for the experimental part:
as §1
The binding affinity and specificity of Gal3C[T243C]-PEG was compared with Gal3C[T243C] and Gal3C (see FIG. 1C, FIG. 9 and FIG. 10) via an inherent tryptophan fluorescence assay optimized to ensure equilibrium binding conditions. Binding of lactose or LacNac quenches the fluorescence of W181, located adjacent to the bound sugar in the crystal structure of Gal3C, thus permitting direct measurement of ligand Kd values.

Where a chain is given by its changes, count along the chain named. In names and notes the source's numbering stands.

In the case of “Gal3C[T243C, K139I]: Gal3C[T243C] variant with lysine K139 replaced by isoleucine”, in data set [1], the “Tm1 ± StDev” value is 52.5 ± 0.4 °C, the “thermal unfolding behaviour / formation of unfolding intermediate” value (from here on “thermal unfolding behaviour / formation”) was “cooperative one step unfolding” and the “Tm2 ± StDev” value was “ND^b (Higher than detectable by instrument (>90° C.))”. In addition, the “Tm1 ± StDev” value in data set [1] (listed as Gal3C[T243C,K139I]) was 52.5 °C. For the same molecule, the “Tm / Tm1” value in data set [1] (values of Summary of Results, Tm for unconjugated protein, Tm1 for PEG conjugate) is 52.7 °C.

B1: Gal3C[T243C, K139I, K196I]: Gal3C[T243C] variant with lysines K139 and K196 replaced by isoleucines (protein)
chain: MADNFSLHDALSGSGNPNPQGWPGAWGNQPAGAGGYPGASYPGAYPGQAPPGAYPGQAPPGAYPGAPGAYPGAPAPGVYPGPPSGPGAYPSSGQPSATGAYPATGPYGAPAGPLIVPYNLPLPGGVVPRMLITILGTVIPNANRIALDFQRGNDVAFHFNPRFNENNRRVIVCNTKLDNNWGREERQSVFPFESGIPFKIQVLVEPDHFKVAVNDAHLLQYNHRVKKLNEISKLGISGDIDLCSASYTMI
In the case of B1, in data set [1], the “Tm1 ± StDev” value amounted to 60.5 ± 0.6 °C, the “thermal unfolding behaviour / formation” value is “cooperative one step unfolding” and the “Tm2 ± StDev” value is reported as “ND^b (Higher than detectable by instrument (>90° C.))”. Besides, the “Tm1 ± StDev” value in data set [1] (listed as Gal3C[T243C,K139I,K196I]) came to 60.5 °C.

B2: Gal3C[T243C,K139I,K196I,K199I]: Gal3C[T243C] variant with lysines K139, K196 and K199 replaced by isoleucines (protein)
chain: B1 chain with K199I
In the case of B2, the “thermal unfolding behaviour / formation” value in data set [1] is given as “significantly altered unfolding profile”.

B3: Gal3C: carbohydrate recognition domain of human galectin-3, residues A111 to E252; SEQ ID NO: 13 (protein)
chain: MAGPLIVPYNLPLPGGVVPRMLITILGTVKPNANRIALDFQRGNDVAFHFNPRFNENNRRVIVCNTKLDNNWGREERQSVFPFESGKPFKIQVLVEPDHFKVAVNDAHLLQYNHRVKKLNEISKLGISGDIDLTSASYTMILEHHHHHH
The term Kd denotes the equilibrium constant for the complex coming apart. In the case of B3, the “fitted melting temperature (Tm)” value in data set [1] (FIG. 13, normalized CD intensity at 220 nm, Boltzmann sigmoidal fit) came out at 58.4 °C. Moreover, the “Tm1 ± StDev” value in data set [1] turned out to be 58.8 ± 0.6 °C. Besides, in the data set with breast cancer, the tumor growth result was “inhibiting tumor growth”. For the same molecule, the Kd came to 231 ± 32.3 µM in data set [2] and 529 ± 125 µM in data set [3].

These data come from patent US20240100174A1, “PROTEIN-PEG INTERACTIONS THAT REDIRECT THE THERMAL UNFOLDING PATHWAY OF PEGYLATED HUMAN GALECTIN-3C” (UNIVERSITY OF FLORIDA RESEARCH FOUNDATION, INCORPORATED, priority 2022, published 2024).
